Common to all, as to assay: cell-based or functional assay
Assay [1] concerns the target rice thioredoxin with S-tag (recombinant, expressed in E. coli from pNOV4113) (rice).
For assay [2], the target named is soybean thioredoxin as labelled in the 4th table (with or without S-tag not told) (soybean).
Assay [3] concerns the target wheat thioredoxin with S-tag (recombinant, expressed in E. coli from pNOV4114) (wheat (T. aestivium [sic])).

Sequence of E. coli thioredoxin reductase (T-7915, Sigma, St. Louis, Mo.) (P0A9P4 2-321 limits assumed): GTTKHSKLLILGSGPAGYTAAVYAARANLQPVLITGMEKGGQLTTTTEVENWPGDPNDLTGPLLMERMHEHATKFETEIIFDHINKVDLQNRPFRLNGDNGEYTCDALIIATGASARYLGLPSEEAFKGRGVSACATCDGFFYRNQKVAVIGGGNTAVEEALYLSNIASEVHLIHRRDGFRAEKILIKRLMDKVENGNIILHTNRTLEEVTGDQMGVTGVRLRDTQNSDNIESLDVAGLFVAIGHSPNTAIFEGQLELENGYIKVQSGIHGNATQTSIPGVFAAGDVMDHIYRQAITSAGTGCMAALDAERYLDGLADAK

Take “Arabidopsis NADPH thioredoxin reductase without S-tag (recombinant, expressed in E. coli from pNOV4115) (from UniProt Q39243 43-375) (enzyme)”: the change in A412 over 4 min, NADPH thioredoxin reductase DTNB assay; 30 ul (about 15 ug) rice thioredoxin, 1.5 ul (about 0.5 ug) Arabidopsis reductase in assay [1] was found to be 0.66 A412. In assay [2], this substance showed a change in A412 over 4 min, NADPH thioredoxin reductase DTNB assay; 30 ul (about 12 ug) soybean thioredoxin, 1.5 ul (about 0.5 ug) Arabidopsis reductase of 0.42 A412. In assay [3], the change in A412 over 4 min, NADPH thioredoxin reductase DTNB assay; 30 ul (about 0.6 ug) wheat thioredoxin, 1.5 ul (0.5 ug) Arabidopsis reductase turned out to be 0.08 A412 and the change in A412 over 4 min, NADPH thioredoxin reductase DTNB assay; 30 ul (about 1.2 ug) wheat thioredoxin, 1.5 ul (0.5 ug) Arabidopsis reductase stood at 0.08 A412.

Take “E. coli thioredoxin reductase (T-7915, Sigma, St. Louis, Mo.) (from UniProt P0A9P4 2-321) (enzyme)”: the change in A412 over 4 min, NADPH thioredoxin reductase DTNB assay; 30 ul (about 15 ug) rice thioredoxin, 2.3 ug E. coli reductase in assay [1] was 0.3 A412. In assay [2], this substance returned a change in A412 over 4 min, NADPH thioredoxin reductase DTNB assay; 30 ul (about 6 ug) soybean thioredoxin, 2.3 ug E. coli reductase of 0.2 A412 and a change in A412 over 4 min, NADPH thioredoxin reductase DTNB assay; 30 ul (about 12 ug) soybean thioredoxin, 2.3 ug E. coli reductase of 0.333 A412. Also, the change in A412 over 4 min, NADPH thioredoxin reductase DTNB assay; 30 ul (about 0.6 ug) wheat thioredoxin, 2.3 ug E. coli reductase in assay [3] worked out at 0.3 A412.

Values taken from US20030145347A1.
